Like-named read-outs stand apart in the source and are kept apart here.
B1: CD47 antibody 1F8 (antibody, V domains shown)
VH: KVQLVESGGGLVKPGGSLRLSCAASGFTFSNAWMNWVRQAPGKGLEWVGRIKRKTDGETTDYAAPVKGRFSISRDDSKNTLYLQMNSLKTEDTAVYYCAGSNRAFDIWGQGTMVTVSA
VL: DIVMTQSPDSLAVSLGERATINCKSSQSVLYSSNNRNYLAWYQQKPGQPPKLLINQASTRASGVPDRFSGSGSGTEFTLIISSLHAEDVAIYYCQQYYTPPLAFGGGTKLEIK

Experiments:
[1] = biological target: human CD47 on Raji cells (human) (UniProt Q08722); test: flow cytometry on Raji cells, APC anti-human Fc
[2] = biological target: primary human AML cells (CD47 on PBMCs of AML patient AML-PB003F) (human) (UniProt Q08722)
[3] = biological target: human platelets (CD47 on CD61-positive platelets) (human) (UniProt Q08722); test: flow cytometry on human whole blood, gated on CD61+ platelets, antibody 10 ug/mL
[4] = biological target: Recombinant human CD47-Fc fusion protein (Acrobiosystems) (human) (UniProt Q08722); test: blocking ELISA: SIRPa-His (1 ug/mL) binding to coated CD47-Fc, anti-His HRP
[5] = biological target: human red blood cells (CD47 on RBC) (human) (UniProt Q08722); test: flow cytometry on human RBCs, APC secondary antibody
[6] = biological target: Recombinant human CD47/mouse Fc fusion protein (Acrobiosystems) (human) (UniProt Q08722); test: ELISA on coated CD47/mouse Fc fusion protein (1 ug/ml), anti-human Fc HRP
[7] = biological target: primary human AML cells (CD47 on PBMCs of AML patient AML-PB003F) (human) (UniProt Q08722); test: flow cytometry on primary AML cells (AML-PB003F); concentration not given
[8] = biological target: Biotinylated CD47 protein (Acrobiosystems) (human) (UniProt Q08722); test: ELISA on coated biotinylated CD47 protein (1 ug/mL), anti-human Fc HRP
[9] = biological target: human red blood cells (CD47 on RBC) (human) (UniProt Q08722); test: flow cytometry on human RBCs, Donor 2, antibody 10 ug/mL
[10] = biological target: primary human AML cells (CD47 on PBMCs of AML patient AML-PB003F) (human) (UniProt Q08722); remark: listed apart in the source
[11] = biological target: human red blood cells (CD47 on RBC) (human) (UniProt Q08722); test: flow cytometry on human RBCs, Donor 1, antibody 10 ug/mL
[12] = biological target: T1, Biotinylated CD47 protein (Acrobiosystems) (human, UniProt Q08722 19-139, biotinylated (site not stated)); test: ELISA on coated biotinylated CD47 protein (1 ug/mL), anti-human Fc HRP
T1 construct: extracellular domain; Bought reagent; also called monomeric CD47-ECD; biotinylated human CD47-ECD protein
Description: After coating of antigen, the wells were blocked with PBS/0.05% Tween (PBST) with 1% BSA for 1 hour at RT. […] Between all incubation steps, the wells of the plate were washed with PBST three times. Fluorescence was measured in a TECAN Spectrafluor plate reader.

Molecule	EC50 (read off the curve) [1] [µg/mL]	phagocytosis: percent of CFSE+ AML cells among CD14+ macrophages [2] [%]	Binding (percent of CD61+ platelets in the gate) [3] [%]	IC50 (read off the curve) [4] [µg/mL]	EC50 (read off the curve) [5] [µg/mL]	EC50 (read off the curve) [6] [µg/mL]	AML Binding (percent of cells in the gate) [7] [%]	EC50 (read off the curve) [8] [µg/mL]	Binding (percent of RBC in the gate) [9] [%]	phagocytosis: percent of CFSE+ AML cells among CD14+ macrophages [10] [%]	Binding (percent of RBC in the gate) [11] [%]	EC50 (read off the curve) [12] [µg/mL]
Reference antibody 2A1 (produced according to the sequence of CC-90002)	0.1	36.8	0.41	0.2	0.06	0.006	75.1	0.03	–	–	–	–
IgG (antibody)	–	–	–	–	–	–	27.6	–	0.018	27	0.079	–
B1	–	–	0.77	–	–	–	–	–	0.076	–	0.065	~0.008
